Among the data in PMC3480970 (Molecular microbiology, 2012) are Kd and percent of chemoreceptor bound values, retold here.

The target of experiment [1] is CheC (Thermotoga maritima) (UniProt Q9X006). The experiment in a line: ITC. The note with it: cited from earlier work.
The target of a further experiment is GST-CheD (B. subtilis) (UniProt P40404). As to the kind of experiment: pull-down.
Experiment [2] has as its target T1, 6xHis-McpC cytoplasmic fragment (wild type, unmodified) (B. subtilis, UniProt P54576 298-655).
T1 sequence (looked up): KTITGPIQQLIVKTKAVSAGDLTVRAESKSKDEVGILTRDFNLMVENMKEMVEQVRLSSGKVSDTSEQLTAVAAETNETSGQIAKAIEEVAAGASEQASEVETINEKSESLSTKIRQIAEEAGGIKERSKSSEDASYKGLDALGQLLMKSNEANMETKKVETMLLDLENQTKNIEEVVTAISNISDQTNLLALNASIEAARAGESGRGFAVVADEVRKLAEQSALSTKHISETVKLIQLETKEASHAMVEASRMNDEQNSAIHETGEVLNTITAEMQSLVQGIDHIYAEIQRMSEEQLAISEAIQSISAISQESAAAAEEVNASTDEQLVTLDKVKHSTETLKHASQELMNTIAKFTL
The experiment in a line: pull-down.

Chain of CheC (Thermotoga maritima) (Q9X006 whole entry): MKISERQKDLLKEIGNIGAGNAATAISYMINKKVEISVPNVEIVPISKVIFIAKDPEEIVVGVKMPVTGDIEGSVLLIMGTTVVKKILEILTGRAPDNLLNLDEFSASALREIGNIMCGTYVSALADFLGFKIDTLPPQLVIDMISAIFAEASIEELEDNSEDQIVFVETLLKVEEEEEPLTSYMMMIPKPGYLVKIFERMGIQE

In the case of CheD (from UniProt Q9X005), in experiment [1], the Kd (as a rule, the free concentration of one partner at which half of the binding sites on the other are occupied at equilibrium, for simple one-to-one binding) is 1 µM. In the experiment with GST-CheD (B. subtilis), “Deamidated (Q609E) McpC cytoplasmic chemoreceptor fragment (from UniProt P54576 1-655) (domain or fragment)” displayed a dissociation constant Kd of 117 µM and a percent of chemoreceptor bound of 13.2%.

B1: GST-CheD (enzyme, B. subtilis, UniProt P40404 1-166, looked up)
chain: MSTTEAVVIKVGIADVKIARFPDTIRTSGLGSCVGLVLYDKEKQTAGLVHVMLPDSTLSKTAELNRAKYADTAVQTTIDMLIEAGCRKFALKAKLAGGSEMFKFKSTNDLMKIGPRNVLAIKEQLSLFNIPIISEDTGGSSGRTIEFEPKSCMLHIRTVKQGEKTI
B1 returned a Kd in experiment [2] of 202 µM.
